Assay results: patent US20160222130A1 (Astellas, published 2016)
Read-outs that look alike come from different tables or passages of the source. Each block holds one binder with its values, some of them ahead of it.

What was measured:
[1] = target: T1, human Tie2 (on human Tie2-expressing cells) (human, UniProt Q02763 23-1124); assay: cell-based or functional assay
[2] = target: T1, human Tie2 (on human Tie2-expressing …); assay: cell-based or functional assay; remark: listed apart in the source
[3] = target: T1, human Tie2 (on human Tie2-expressing …); assay: cell-based or functional assay; remark: listed apart in the source
[4] = target: T2, recombinant human Tie2-Fc chimeric protein (R&D, 313-TI-100) (human, UniProt Q02763 23-745); assay: ELISA, Tie2-Fc coated, HRP/TMB absorbance at 450 nm
T2 construct: Bought reagent; Fc part of the bought chimera not given
T2 sequence (Q02763 23-745, change not shown): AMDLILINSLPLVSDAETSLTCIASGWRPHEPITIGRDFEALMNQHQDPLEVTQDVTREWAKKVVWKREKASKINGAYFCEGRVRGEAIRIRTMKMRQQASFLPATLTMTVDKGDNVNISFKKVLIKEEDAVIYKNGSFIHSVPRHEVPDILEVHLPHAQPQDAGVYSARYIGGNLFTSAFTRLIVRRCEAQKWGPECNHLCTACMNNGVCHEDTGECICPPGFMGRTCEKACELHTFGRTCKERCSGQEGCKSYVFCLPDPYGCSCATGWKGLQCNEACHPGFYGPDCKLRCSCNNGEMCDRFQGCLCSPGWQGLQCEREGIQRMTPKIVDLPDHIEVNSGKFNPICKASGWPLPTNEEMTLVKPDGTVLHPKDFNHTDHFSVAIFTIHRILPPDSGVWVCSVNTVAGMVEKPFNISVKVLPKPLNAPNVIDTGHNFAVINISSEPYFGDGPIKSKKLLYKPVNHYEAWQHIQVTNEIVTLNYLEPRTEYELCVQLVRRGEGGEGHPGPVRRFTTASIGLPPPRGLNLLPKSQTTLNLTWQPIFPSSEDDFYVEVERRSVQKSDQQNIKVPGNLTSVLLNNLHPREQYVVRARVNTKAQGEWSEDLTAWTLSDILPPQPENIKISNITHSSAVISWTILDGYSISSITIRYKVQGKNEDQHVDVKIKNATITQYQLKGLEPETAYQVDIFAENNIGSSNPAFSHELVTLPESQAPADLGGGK

[5] = target: T3, recombinant monkey Tie2-Fc chimeric protein (Sino Biological Inc., 90292-C02H) (monkey); assay: as above
T3 construct: Bought reagent

[6] = target: T1, human Tie2 (on human Tie2-expressing …); assay: cell-based or functional assay; remark: listed apart in the source

T1 sequence (Q02763 23-1124): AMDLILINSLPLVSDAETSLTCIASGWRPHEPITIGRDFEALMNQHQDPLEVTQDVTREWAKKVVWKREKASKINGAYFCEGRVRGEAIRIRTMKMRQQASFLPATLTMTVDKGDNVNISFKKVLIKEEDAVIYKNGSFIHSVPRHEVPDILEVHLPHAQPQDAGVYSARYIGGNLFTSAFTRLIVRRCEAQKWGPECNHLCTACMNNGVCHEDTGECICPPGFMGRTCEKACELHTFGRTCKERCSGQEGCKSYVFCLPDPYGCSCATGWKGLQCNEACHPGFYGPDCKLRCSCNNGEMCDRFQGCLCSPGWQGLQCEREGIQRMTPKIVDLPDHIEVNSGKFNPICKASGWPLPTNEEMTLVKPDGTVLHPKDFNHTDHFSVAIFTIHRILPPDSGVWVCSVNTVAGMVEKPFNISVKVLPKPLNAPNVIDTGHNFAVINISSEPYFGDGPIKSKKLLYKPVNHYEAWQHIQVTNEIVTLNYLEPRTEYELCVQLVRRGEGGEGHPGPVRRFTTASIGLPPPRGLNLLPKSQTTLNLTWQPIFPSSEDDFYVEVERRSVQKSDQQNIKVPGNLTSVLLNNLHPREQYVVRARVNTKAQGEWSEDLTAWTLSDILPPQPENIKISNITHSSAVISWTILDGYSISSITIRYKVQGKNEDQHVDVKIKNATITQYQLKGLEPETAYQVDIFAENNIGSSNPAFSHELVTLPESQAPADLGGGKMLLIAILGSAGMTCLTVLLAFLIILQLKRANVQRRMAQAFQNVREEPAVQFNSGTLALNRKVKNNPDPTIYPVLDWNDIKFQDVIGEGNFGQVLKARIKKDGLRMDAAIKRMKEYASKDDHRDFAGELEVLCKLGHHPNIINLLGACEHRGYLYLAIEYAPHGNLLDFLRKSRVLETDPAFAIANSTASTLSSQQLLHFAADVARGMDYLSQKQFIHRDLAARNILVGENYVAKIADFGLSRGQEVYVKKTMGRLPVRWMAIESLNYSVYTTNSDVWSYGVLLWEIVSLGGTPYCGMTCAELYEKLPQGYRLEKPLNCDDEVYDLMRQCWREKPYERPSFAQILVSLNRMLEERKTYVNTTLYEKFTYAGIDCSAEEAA

EC50 value of anti-apoptotic activity, human Tie2-expressing BaF3 cell [1]: 0.0376 µg/mL
B1: fully human 2-16A2 (antibody, human IgG1, kappa, V domains shown)
VH: EVQLVESGGGLVQPGGSLRLSCAASGFTFDDYAMHWVRQAPGKGLEWVAGISWNSGSIVYADSVKGRFTISRDNSKNTLYLQMNSLRAEDTAVYYCAKDIREQLVEDAFDIWGQGTLVTVSS
VL: DIQMTQSPSSLSASVGDRVTITCRSSQSLLHSHRYNYLDWYQQKPGKAPKLLIYLGSNRASGVPSRFSGSGSGTDFTLTISSVQPEDFATYYCMQTLQTPLTFGQGTKVEIKR

anti-apoptotic activity, human Tie2-expressing BaF3 cell (maximum, relative to Ang-1) [2]: ~60% | EC50 value of anti-apoptotic activity, human Tie2-expressing BaF3 cell [3]: 0.0266 µg/mL | EC50 [4]: 0.219 µg/mL | EC50 [5]: 0.224 µg/mL
B2: murine monoclonal antibody 15B8 (antibody, V domains shown)
VH: QVQLQQPGVVLVMPGASVKLSCKASGYTFASYWMHWVKQRPGQGLEWIGEIDPSDSYRNYNQKFKGKATLTVDKSSSTVNMQLSSLTSEDSAVYYCAKTSGIGRAMDYWGQGTSVTVSS
VL: DIQMIQSPASLSASVGETVTITCRASENIYSFVTWYQQKQGKSPQLLVFNAKNLVEGVPSSFSGSGSGTQFSLKIDSLQPEDFGTYYCQHHYSIPYTFGGGTKLEMR

EC50 value of anti-apoptotic activity, human Tie2-expressing BaF3 cell [1]: 0.0071 µg/mL
B3: TIE-1-Igγ1-WT (antibody, human IgG1, kappa)
heavy: not shown
light: DIQMTQSPSSLSASVGDRVTITCRSSQSLLHSHRYNYLDWYQQKPGKAPKLLIYLGSNRASGVPSRFSGSGSGTDFTLTISSVQPEDFATYYCMQTLQTPLTFGQGTKVEIKRTVAAPSVFIFPPSDEQLKSGTASVVCLLNNFYPREAKVQWKVDNALQSGNSQESVTEQDSKDSTYSLSSTLTLSKADYEKHKVYACEVTHQGLSSPVTKSFNRGEC

EC50 value of anti-apoptotic activity, human Tie2-expressing BaF3 cell [6]: 0.00506 µg/mL
B4: TIE-1-Igγ1-I253A (antibody, human IgG1, kappa, L234A L235A)
heavy: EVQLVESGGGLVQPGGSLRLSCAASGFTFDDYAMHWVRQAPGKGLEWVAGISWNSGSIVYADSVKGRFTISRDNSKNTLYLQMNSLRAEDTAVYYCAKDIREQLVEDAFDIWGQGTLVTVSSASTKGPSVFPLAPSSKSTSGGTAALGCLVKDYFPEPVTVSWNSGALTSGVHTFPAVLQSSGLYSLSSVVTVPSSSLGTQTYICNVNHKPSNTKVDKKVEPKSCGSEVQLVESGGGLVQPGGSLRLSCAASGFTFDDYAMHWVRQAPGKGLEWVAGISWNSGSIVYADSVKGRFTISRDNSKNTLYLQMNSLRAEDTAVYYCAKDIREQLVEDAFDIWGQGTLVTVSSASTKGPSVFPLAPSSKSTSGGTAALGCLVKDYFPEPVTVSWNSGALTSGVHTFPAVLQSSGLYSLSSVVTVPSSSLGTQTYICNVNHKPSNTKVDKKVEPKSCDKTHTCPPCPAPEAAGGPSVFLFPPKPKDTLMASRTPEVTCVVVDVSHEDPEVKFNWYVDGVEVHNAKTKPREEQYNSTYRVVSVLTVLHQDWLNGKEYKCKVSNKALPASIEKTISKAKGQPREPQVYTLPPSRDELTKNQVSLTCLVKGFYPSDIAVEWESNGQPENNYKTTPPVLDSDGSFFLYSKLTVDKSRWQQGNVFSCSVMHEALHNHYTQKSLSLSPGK
light: DIQMTQSPSSLSASVGDRVTITCRSSQSLLHSHRYNYLDWYQQKPGKAPKLLIYLGSNRASGVPSRFSGSGSGTDFTLTISSVQPEDFATYYCMQTLQTPLTFGQGTKVEIKRTVAAPSVFIFPPSDEQLKSGTASVVCLLNNFYPREAKVQWKVDNALQSGNSQESVTEQDSKDSTYSLSSTLTLSKADYEKHKVYACEVTHQGLSSPVTKSFNRGEC
